We go through two molecules from patent US20250042968A1, “EPHRIN LIGAND MIMETIC PEPTIDES FOR THE TREATMENT OF NEURODEGENERATIVE DISEASES” (University of Miami, priority 2022, published 2025).

The assay deals with human fetal brain-derived neural stem cells (hNSC). The experiment in a line: hNSC growth on ephrin-ligand repulsive substrates. Conditions: for substrate effect on neuronal cell growth: laminin-coated surfaces containing pre-clustered efn ligand. It is filed as cell-based. As for the experimental part: Fetal brain-derived neural stem cells (hNSC): In order to evaluate the effect of xEFN peptides on human neuronal cells, StemPro hNSC were purchased from ThermoFisher Scientific (Cat. no. A15654) and cultured according to the manufacturer's recommended protocol. Briefly, cells were grown in non-adherent neurosphere suspension cultures in StemPro NSC serum-free media (NSC-SFM) (Cat. no. A10509-01) supplemented with 2 mM GlutaMAX-I supplement, 6 U/mL heparin, and 200 μM ascorbic acid (Sigma-Aldrich, Cat. no. A8960). Culture media was changed every 2 days and cells were passaged every 7 days as undifferentiated hNSC. To induce differentiation into neuronal cells, hNSC neurospheres were dissociated into single-cell suspensions using StemPro Accutase for 5 minutes at 37° C. followed by mechanical pipetting. hNSC were then plated onto Geltrex-coated culture vessels at a concentration of 2×10^4 cells/cm^2 in neuronal differentiation media consisting of NSC media without bFGF or EGF and supplemented with B-27 supplement (ThermoFisher Scientific) for 3 days prior to performing further in vitro assays.
Glial-bound efn ligands have been associated with mediating the major repulsive milieu for neuronal process in the CNS. […] Moreover, assays on the repulsive nature of efn ligand-presenting surfaces have been a mainstay in axonal guidance studies for many decade. The use of xEFN peptides to antagonize this repulsive signaling from efn ligand substrates was evaluated on human fetal brain-derived neural stem cells (hNSC).
Recombinant Efn ligands (A2, A4, and B3) containing a His-Tag were purchased from R&D Systems, and were pre-clustered using an anti-His antibody (Genetex) for 30 min. The pre-clustered Efn ligands, or anti-his antibody alone, (control) were then mixed with laminin from human placenta (Sigma-Aldrich) in suspension and used to coat the growth surface of a 24-well plate. […] The entire wells were then scanned using an EVOS FL Auto fluorescent microscope and the images were analyzed in the ImageJ software to calculate cell coverage area.

B1: efnB3: recombinant Efn ligand containing a His-Tag (R&D Systems), pre-clustered with anti-His antibody (protein, UniProt Q15768 28-226, looked up)
extracellular domain: LSLEPVYWNSANKRFQAEGGYVLYPQIGDRLDLLCPRARPPGPHSSPNYEFYKLYLVGGAQGRRCEAPPAPNLLLTCDRPDLDLRFTIKFQEYSPNLWGHEFRSHHDYYIIATSDGTREGLESLQGGVCLTRGMKVLLRVGQSPRGGAVPRKPVSEMPMERDRGAAHSLEPGKENLPGDPTSNATSRGAEGPLPPPSMP
modifications: extracellular domain His tag, pre-clustered
notes: recombinant Efn ligand containing a His-Tag (R&D Systems), pre-clustered with anti-His antibody
For B1, the “substrate effect on neuronal cell growth” value is listed as “highly repulsive substrates”. Moreover, for the setting “no peptide, compared to the laminin-only control confluence”, the “hNSC confluence on pre-clustered efn ligand substrate” value is recorded as 44.61+/−1.61%.

B2: efnB1: pre-clustered ephrin ligand on laminin-coated surface (protein, UniProt P98172 28-346, looked up)
Ephrin-B1: LAKNLEPVSWSSLNPKFLSGKGLVIYPKIGDKLDIICPRAEAGRPYEYYKLYLVRPEQAAACSTVLDPNVLVTCNRPEQEIRFTIKFQEFSPNYMGLEFKKHHDYYITSTSNGSLEGLENREGGVCRTRTMKIIMKVGQDPNAVTPEQLTTSRPSKEADNTVKMATQAPGSRGSLGDSDGKHETVNQEEKSGPGASGGSSGDPDGFFNSKVALFAAVGAGCVIFLLIIIFLTVLLLKLRKRHRKHTQQRAAALSLSTLASPKGGSGTAGTEPSDIIIPLRTTENNYCPHYEKVSGDYGHPVYIVQEMPPQSPANIYYKV
modifications: pre-clustered
notes: pre-clustered ephrin ligand on laminin-coated surface
With B2, the “substrate effect on neuronal cell growth” value is recorded as “highly repulsive substrates”.
